Assay results from US20020198143A1 (Human Genome Sciences, published 2002).

Biological target: T1, human B7-H3 protein expressed on transfected 293 cells (human, UniProt Q5ZPR3 29-534)
T1 construct: also called B7-H3/293 cells
T1 sequence: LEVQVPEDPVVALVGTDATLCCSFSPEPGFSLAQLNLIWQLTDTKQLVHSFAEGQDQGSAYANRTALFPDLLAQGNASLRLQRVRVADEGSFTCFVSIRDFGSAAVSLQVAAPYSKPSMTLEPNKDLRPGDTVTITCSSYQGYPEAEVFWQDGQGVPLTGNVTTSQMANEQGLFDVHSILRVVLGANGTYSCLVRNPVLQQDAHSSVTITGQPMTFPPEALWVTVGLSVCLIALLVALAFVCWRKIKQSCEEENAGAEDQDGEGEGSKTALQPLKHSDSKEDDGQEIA
Test: FACS on 293 cells transfected with B7-H3
Description: It has been reported that both CTLA-4 nd ICOS can be induced to express on the surface of activated T cells, while CD28 expresses constitutively.

binding result: no binding
B1: ICOSIg (Fc fusion, UniProt Q9Y6W8 21-140, looked up)
chain: EINGSANYEMFIFHNGGVQILCKYPDIVQQFKMQLLKGGQILCDLTKTKGSGNTVSIKSLKFCHSQLSNNSVSFFLYNLDHSHANYYFCNLSIFDPPPFKVTLTGGYLHIYESQLCCQLK
notes: extracellular domain; not shown: Fc constant region of mouse IgG2a, inferred from 'similar methods'
